{"source": "paper PMC8927995", "target": "PspR, DTG rhodopsin from Pseudomonas putida (Pseudomonas putida)", "assay": "crystal structure"}
{"substance": "PspR, DTG rhodopsin from Pseudomonas putida (natural protein)", "values": [{"measurement": "stoichiometry N", "value": 3}]}
